Measurements: PMC7274078, “Brain Endothelial Cells Regulate Glucagon-Like Peptide 1 Entry Into the Brain via a Receptor-Mediated Process” (Frontiers in Physiology, 2020)

Key:
[1] = tested on: RBMEC and astrocyte barrier; assay: Trans-endothelial GLP-1 transport (Transwell artificial BBB); assay type: in vitro ADME, rat
Protocol: The trans-endothelial GLP-1 transport was examined using a Transwell system that mimics the BBB in that RBMECs were co-cultured with astrocytes as illustrated in Figure 7A and previously described ([Gaillard et al., 2001]). Briefly, astrocytes (Thermo Fisher Scientific, Waltham, MA, United States) were seeded on the bottom and RBMECs were then seeded onto the top of the Transwell insert (6.5 mm diameter, 1 μm pore size, polyester membrane; Corning, Corning, NY, United States). Trans-endothelial electrical resistance was monitored using a volt-ohmmeter (EVOM; WPI, Sarasota, FL, United States) and EndOhm chamber (EndOhm; WPI). When the trans-endothelial electrical resistance reached its peak, the insert with double cell layers was washed twice at 37°C with PBS buffer. […] The amount of GLP-1-FAM or inulin-FITC transported to the lower chamber was determined by measuring FAM and FITC fluorescence in the lower chamber at 5, 10, and 30 min. Inulin-FITC transport was used to correct for paracellular transport and the amount of trans-endothelial transport of GLP-1-FAM was calculated using the formula:
Transcellular transport (%)=Fluorescence [FAM]/Reference [FAM]×100−Fluorescence [FITC]/Reference [FITC]×100
Reference refers to fluorescence in the lower chamber at the specified time point when the Transwell inserts had no cells seeded. To determine if this trans-endothelial transport is dose-dependent, 10, 100, and 1,000 pM GLP-1-FAM or inulin-FITC (with DDP-4 inhibitor) was loaded into the upper chamber, the amount of GLP-1-FAM or inulin-FITC in the lower chamber was determined at 10 min, and trans-endothelial transport of GLP-1 was calculated.
FIGURE 7 Trans-endothelial transport of GLP-1 is a GLP-1 receptor-mediated process. […] GLP-1-FAM or inulin-FITC transport to the lower chamber was determined by measuring FAM and FITC fluorescence in the lower chamber. […]

[2] = Circulating GLP-1-FAM / exendin-4-FAM uptake by the brain; assay type: in vivo; details: rat, systemic infusion 30 pmol/kg/min for 10 min; cerebellum, cortex, hippocampus, hypothalamus, brain stem; FAM fluorescence in lysates corrected for vascular space with Dextran-TRITC; n = 7 (GLP-1-FAM), n = 6 (exendin-4-FAM)
Protocol: Rats received a systemic infusion of either saline or exendin-(9-39) (GLP-1 receptor antagonist, 30 nmol/kg/min, Abcam, Cambridge, United Kingdom) via the jugular vein catheter for 20 min (Figure 1A). In the last 10 min, rats also received 30 pmol/kg/min of either GLP-1-FAM (AnaSpec, Fremont, CA, United States) or exendin-4-FAM (AnaSpec, Fremont, CA, United States) together with Dextran-TRITC (Sigma-Aldrich, St. Louis, MO, United States) (70 kD, vascular space marker, 30 pmol/kg/min). […] After collecting plasma samples, rats were sacrificed via anesthetic overdose and various brain regions (cerebellum, cortex, hippocampus, hypothalamus, and brain stem) collected, homogenized and lysed in lysis buffer. Fluorescence from TRITC and FAM were measured in both plasma and brain lysates. Protein concentrations were determined in the brain lysates. Brain uptake of GLP-1-FAM and exendin-4-FAM were calculated using the following formula:
Tissue fluorescence [FAM]/Tissue weight (μg)−TissueFluorescence [TRITC]/Weight(μg)/PlasmaFluorescence [TRITC]/200(μL)×Plasma Fluorescence [FAM]/200μL
FIGURE 1 GLP-1 and GLP-1 analog exendin-4 enter various brain regions via GLP-1 receptor-mediated process. (A) Protocol. […]

[3] = tested on: Rat brain microvascular endothelial cells (RBMECs); assay: Endothelial cell uptake of GLP-1-FAM; assay type: cell-based; details: confocal fluorescence
Protocol: Rat brain microvascular endothelial cells (RBMECs; Cell Applications, San Diego, CA, United States) were cultured on a cover slip in rat brain endothelial cell growth medium. After reaching confluency, cells were pre-treated with vehicle (PSS buffer), exendin 9-39 (10 nM) or H89 (Sigma-Aldrich, St. Louis, MO, United States) (10 μM) for 30 min or forskolin (Sigma-Aldrich, St. Louis, MO, United States) (10 μM) for 5 min. Cells were then incubated with GLP-1-FAM at either 10, 100 or 1,000 pM for 3 min at 37°C. DAPI was used to stain the nucleus. After fixation and washing three times with cold TBST (5 min each time), cell images were captured using confocal microscope and fluorescence intensity measured using ImageJ software^1. FAM signal from surface binding of FAM was examined by incubating cells with GLP-1-FAM at 4 or 37°C for 3 min, or free FAM (10, 100, and 1,000 pM) at 37°C for 3 min.
FIGURE 5 GLP-1 uptake by RBMECs is GLP-1 receptor and PKA dependent. RBMECs were pretreated with vehicle (PSS buffer, A,E,I), Exendin 9-39 (10 nM, B,F,J) or H89 (10 μM, C,G,K) for 30 min. Cells were then incubated with GLP-1-FAM at 10, 100 pM or 1 nM for 3 min. DAPI was used to stain the nucleus. Images were captured using confocal microscope. Fluorescence density was analyzed using ImageJ. (D,H,L) Quantitative analysis (n = 3, *p < 0.01, vs. vehicle, Student’s t test). GLP-1R – GLP-1 receptor.
FIGURE 6 cAMP agonist increases GLP-1 uptake by RBMECs. (A) RBMECs were incubated with GLP-1-FAM at 10 pM for 3 min with or without 10 μM forskolin. DAPI was used to stain the nucleus. Images was captured using confocal microscope. Fluorescence density was analyzed using ImageJ. (B) quantitative analysis of the images (n = 6, *p < 0.05, vs. vehicle, Student’s t test).

[4] = in vivo; cited from earlier work
Source text: Peptides cross the BBB via transcellular vesicular pathways that may be either constitutive or regulated. […] This is similar to leptin ([Banks et al., 1996]) and insulin ([Gray et al., 2014]; [Meijer et al., 2016]), two appetite regulating hormones secreted peripherally that enter into the brain. || The central actions of GLP-1 and its analogs have been well recognized. GLP-1 analogs have been repeatedly shown to cross the BBB, stimulate brain GLP-1 receptors, and modulate mitochondrial function, protein aggregation, neuroinflammation, synaptic plasticity, learning and memory in experimental models of Parkinson's and Alzheimer's disease ([Athauda and Foltynie, 2016]). Our observation that peripherally administrated GLP-1 and exendin-4 rapidly enter various brain regions is consistent with prior findings that peripherally injected GLP-1 analogs can easily enter the brain ([[…] and Akers ...

[5] = tested on: DPP4; details: no reference given; cited from earlier work
Source text: GLP-1 receptors are expressed in multiple brain areas in rodents, primates, and humans and they are involved in learning, neuroprotection and regulation of appetite and satiety ([Wei and Mojsov, 1995]; [During et al., 2003]; [Richards et al., 2014]). Global knockout of the GLP-1 receptor in mice impairs synaptic plasticity and memory formation ([Abbas et al., 2009]). […] Indeed, pre-treatment of animals w ...

Q: With GLP-1-FAM: FAM-labeled GLP-1 (AnaSpec) as the substance, how does the “concentration dependence of trans-endothelial transport” value ([1]; Transwell, 10, 100 and 1000 pM, 10 min, with DPP4 inhibitor, n = 6, p = 0.37) read?
A: Its value is “does not appear to be concentration dependent”.

Q: And the “transport across the RBMEC and astrocyte barrier, time course” value ([1]; Transwell, RBMECs co-cultured with astrocytes, 100 pM in upper chamber with DPP4 inhibitor, lower chamber fluorescence at 5, 10 and 30 min, corrected for paracellular transport with inulin-FITC, n = 7)?
A: Its value is “crossed the barrier in a time-dependent fashion”.

Q: And the “FAM-labeled peptide detected in brain regions (brain uptake)” value [2]?
A: The value was “detected in various brain regions”.

Q: And the RBMEC uptake ([3]; 10, 100 and 1,000 pM, 3 min at 37°C, ImageJ)?
A: The RBMEC uptake was “actively took up”.

Q: And the “RBMEC uptake at 4°C” value ([3]; 3 min at 4°C)?
A: Its value is “did not take up”.

Q: Which “time to detection in the brain after intravenous injection” value [4] does the source give for exendin-4 here?
A: Its value is ≤ 5 min.

Q: What about the half-life [5] of the same substance?
A: Its half-life is 1.5 h.

Q: What about the “stability to DPP4” value [5] of the same substance?
A: Its value is “DPP4 resistant”.
